This assay concerns FLAG-USP20. Briefly: IP-MS of FLAG-USP20 and variants vs empty vector. In kind it is cell-based, human.
[1] abbreviates: IP-MS, FLAG-USP20-ΔDUSP2 vs EV, comparison bh_2 Sample_Limma_ImpMedInt_USP20_DUSP2_domain/EV.
[2] abbreviates: IP-MS, FLAG-USP20 UBP mutant vs EV, comparison USP20_E55K_D59R/EV, Limma.
[3] abbreviates: IP-MS, FLAG-USP20 vs EV, comparison USP20_wt/EV, Limma.
The mark [4] stands for this setting: Table S7b USP20 MS_and_motif, bait USP20.

Procedure: For transfection, 1x10^6 HEK293 cells were seeded in 10 cm dishes with DMEM, 10% FBS, 1% L-G (without antibiotic) medium, incubated at 37 °C, with 5 % CO2 for 24 h. Cells were transfected with a transfection mix containing 970 mL of Opti-MEM (Thermo Fisher Scientific), 20 μL of PEI stock (1 mg/mL) and 5 mg of the desired cDNA. For co-transfection, 2.5 μg of DNA of each plasmid was used. The mix was vortexed for 15 s and incubated at room temperature for 15–20 min. The transfection mix was added to the dish and gently mixed. Plates were incubated at 37 °C for 36–48 h before harvesting. For USP33 constructs, 5 μM Bortezomib (proteasome inhibitor) was added 4 hours before harvesting the cells.
FLAG fusion proteins were immunoprecipitated from HEK293 cells transfected with plasmids encoding the protein of interest using the anti-FLAG M2 affinity gel from Sigma-Aldrich. […] The cell lysate was clarified by centrifugation at 17,000 x g, at 4 °C for 12 min, and the supernatant was transferred to a clean, pre-chilled low-binding Eppendorf tube. […] The IP samples were centrifuged at 6500 x g at 4 °C for 30 s. The supernatant containing the unbound proteins was transferred to a clean tube. The resin was washed three times with 500 μL of TBS, centrifuged at 6500 x g at 4 °C for 30 s. The bound FLAG fusion protein was eluted with 100 μL of 150 ng/μL 3X FLAG peptide (Sigma) in TBS and incubated in the cold room for 1 h or overnight. The tube was centrifuged at 6500 x g at 4 °C for 30 s; the eluted proteins were transferred to a clean tube. The eluted proteins were prepared for analysis by western blot or Mass Spectrometry.
Immunoprecipitation (IP) was carried out as described above; four technical replicates of each IP condition were performed, and the empty vector was used as a negative control. The eluted protein was processed following the Strap-micro protocol (Protifi). The IP elution containing 1–100 μg protein was 1:1 mixed with 2X lysis buffer (10% SDS, 100 mM TEAB pH 8.5). […] Samples were vortexed, mixed with 165 μL of 100 mM TEAB in 90% methanol, and passed through an S-Trap micro column at 4000 g for 30 s to trap the proteins. The column was washed with 150 μL of 100 mM TEAB in 90% methanol (at 4,000 x g for 30 seconds) three times. The S-Trap column was centrifuged again and transferred to a clean 2 mL tube for digestion with 20 μL of digestion buffer (1 μg trypsin per 10 μg sample in 50 mM TEAB), at 37 °C overnight in a thermomixer without shaking. The digested peptides were eluted with 40 mL of 50 mM TEAB in water, 40 mL of 0.2 % formic acid in water, and 40 mL of 50 % acetonitrile in water, centrifuging at 4000 x g for 1 min each time. The three elutions were pooled in a low-binding tube, placed on dry ice until frozen, dried in a SpeedVac vacuum (Thermo Scientific), and proceeded with the LCMS analysis.
Eluted peptides were analyzed using data-independent acquisition mode on the mass spectrometer.
Peptides were searched against the Uniprot Swissprot Human database (released on 02/01/2023) supplemented with the USP20 and USP33 mutants using DiaNN (v1.9.0)[62] operating in library-free mode. Data filtering and statistical analysis were carried out in Python (v3.9.0) using the packages pandas, numpy, sklearn, scipy, rpy2, Plotnine, and Plotly and R (v4.4.3) using the package limma.
Protein groups identified with a single peptide or quantified in fewer than three replicates in at least 1 condition were filtered out. Protein group intensities were median normalized and missing values were imputed using a Gaussian distribution centered on the median with a downshift of 1.8 and width of 0.3 (relative to the standard deviation).

B1: RTL8C (protein, UniProt O15255 1-206, looked up)
CAAX box protein 1: MGGGRGLLGRETLGPGGGCSGEGPLCYWPPPGSPPAPSLRASLPLEPPRCPLRSCSLPRSACLCSRNSAPGSCCRPWASLWSEPPPSPSSQPAPPMYIWTLSCAPAASWAPVTHWTDHPLPPLPSPLLPTRLPDDYIILPTDLRCHSHRHPSHPTDRLLLLVIWTHLGGIWAGHSPWTVIQTAGRPPRDLSPSARPISSPPPETSC
With B1, the log2_FC is, setting by setting: under setting [1], 4.856; under setting [2], 5.261.

B2: MEIOC (protein, UniProt A2RUB1 1-952, looked up)
Meiosis-specific coiled-coil …: MEVRRGDTCPRPHPSGLREEGLEPKVAFPGGANRCWNLGADAGSRLTDVFGSVMLTGSASFYDCYTSQSEDNVDLRQTYTPFSSTEYSSSVDSSLFCAPWSTYGDDIKQPSNSQISIKNRIQTERNDYGSETDLYGLVSNILEEQDKSQPYFAEGTCSSNLKSVWPMNTSRFADHHDLLTETKRPIDTVISQQAFYSDESVSAMEKQYLRNSNLTPQQKIDELHHGFTGLDLEEQWMYPSRSDHSNCHNIQTNDTAKTTFQEYPLIKNCFTPQTGLSDIMKESGVDIYHYGRDRICTKGLEAPLQQKRAEMFLSQFNRYNENVDYCRYPEYVHPNKAKLNKCSNFSVQDSKKLANGTPETPTVEADTYTKLFQVKPANQKKMEETIPDQQNFTFPKTTPHLTEKQFAKEAVFTADFGLTSEYGLKPHTACPANDFANVTEKQQFAKPDPPHSEYFKSVNLLSNSATSSGGINLNRPTWMNVQTKNNTPIPYRNQGNLMKLNSHLSAASKGSNHSSDFPQLSSTNLTPNSNLFQKYCQENPSAFSSFDFSYSGAERIQSVNHIEGLTKPGEENLFKLVTDKKIKQPNGFCDNYSAQKYGIIENVNKHNFQAKPQSGHYDPEEGPKHLDGLSQNTYQDLLESQGHSNSHRTRGGDNSRVNRTQVSCFSNNYMMGDLRHNQCFQQLGSNGFPLRSTHPFGHSVVPLLDSYDLLSYDDLSHLYPYFNMMYGDNSFSGLMPTFGFQRPIKTRSGPASELHIRLEECCEQWRALEKERKKTELALAKNYPGKKVSSTNNTPVPRLTSNPSRVDRLIVDELRELARVVTLLGKMERLRSSLLHASISTALDRHLESIHIVQSRRKDEIVNASNRQRQGVPRCQDDRDVFALASAIKEMCVATRKTRTALWCALQMTLPKTASTADVVKPLQDTVNCEDKVHESINSSNPMNQRGETNKH
B2 displayed a log2_FC (IP-MS, FLAG-USP20-ΔUBP vs EV, comparison bh_2 Sample_Limma_ImpMedInt_USP20_UBP_domain/EV) of 4.277; a log2_FC under setting [2] of 4.883; a log2_FC under setting [3] of 5.071; a log2_FC under setting [4] of 5.071.

B3: CCDC85C (protein, UniProt A6NKD9 2-419, looked up)
Coiled-coil domain-containing …: AKPAATAAAASEELSQVPDEELLRWSKEELARRLRRAEGEKVGLMLEHGGLMRDVNRRLQQHLLEIRGLKDVNQRLQDDNQELRELCCFLDDDRQKGRKLAREWQRFGRHAAGAVWHEVARSQQKLRELEARQEALLRENLELKELVLLLDEERAALAATGAASGGGGGGGGAGSRSSIDSQASLSGPLSGGAPGAGARDVGDGSSTSSAGSGGSPDHHHHVPPPLLPPGPHKAPDGKAGATRRSLDDLSAPPHHRSIPNGLHDPSSTYIRQLESKVRLLEGDKLLAQQAGSGEFRTLRKGFSPYHSESQLASLPPSYQDSLQNGPACPAPELPSPPSAGYSPAGQKPEAVVHAMKVLEVHENLDRQLQDSCEEDLSEKEKAIVREMCNVVWRKLGDAASSKPSIRQHLSGNQFKGPL
For the molecule B3, the log2_FC turned out to be 3.963 under setting [2], 4.015 under setting [3] and 4.015 under setting [4].

B4: RCCD1 (protein, UniProt A6NED2 1-376, looked up)
RCC1 domain-containing …: MAEERPGAWFGFGFCGFGQELGSGRGRQVHSPSPLRAGVDICRVSASWSYTAFVTRGGRLELSGSASGAAGRCKDAWASEGLLAVLRAGPGPEALLQVWAAESALRGEPLWAQNVVPEAEGEDDPAGEAQAGRLPLLPCARAYVSPRAPFYRPLAPELRARQLELGAEHALLLDAAGQVFSWGGGRHGQLGHGTLEAELEPRLLEALQGLVMAEVAAGGWHSVCVSETGDIYIWGWNESGQLALPTRNLAEDGETVAREATELNEDGSQVKRTGGAEDGAPAPFIAVQPFPALLDLPMGSDAVKASCGSRHTAVVTRTGELYTWGWGKYGQLGHEDTTSLDRPRRVEYFVDKQLQVKAVTCGPWNTYVYAVEKGKS
Turning to B4, the log2_FC under setting [1] was found to be 4 and the log2_FC under setting [2] is recorded as 4.331.

For the origin of these results see article PMC13376213, “Systematic discovery of motif-based interactions of the auxiliary domains of USP family deubiquitinases” (Nature Communications, 2026).
